This is an account of results in US20230312753A1 (IMMUNORIZON, published 2023).

The term EC50 denotes the midpoint of the concentration-response curve. Low values mean a more potent agent, high ones a less potent agent.

For assay [1], the target named is T1, NKG2A-CD94-ECD-hFc (human, UniProt P26715 94-233; Q13241 32-179, limits assumed).
T1 construct: extracellular domain; Lot 20200724002, 'provided by CP'; the two-chain layout here is only the reading of the name; also called human NKG2A (recombinant); NKG2A antigen; not shown: human Fc (hFc)
In words: ELISA on coated NKG2A-CD94-ECD-hFc (FIG. 43D). As to the method:
(§1) Methods: ELISA binding of Tribody/ProTribody antibody constructs to antigens: Dilute target protein (hCD3epsilon-His (cat # 10977-H08S, supplier Sino Biological); h5T4-His (cat# 19845-H08H, supplier Sino Biological); NKG2A-CD94-ECD-hFc, Lot:20200724002, provided by CP; or NKG2D-ECD-hFc, Lot: 20200413002, provided by CP) into PBS with final concentration of 0.01 µg/mL for hCD3epsilon-His, 0.3 µg/mL for h5T4-His, 1 µg/mL for NKG2A-CD94-ECD-hFc and 0.7 µg/mL for hNKG2D-ECD-hFc respectively and coat 100 µL/well on ELISA plate (cat: 9018, supplier Corning) respectively. Incubate O/N, 4° C. The plates were blocked with 250 µL 1% BSA in PBST for 1 hr at 37° C.Wash 4 times with PBST. All the washes are done using Biotek (Elx 405). All the Tribody set antibodies were diluted to 400 nM and make 4-fold serially dilutions (12 points, including 0 point). Add 100 µL/well diluted antibody constructs solution to plate, incubate for 1 hr at 37° C.Wash 4 times with PBST. Add 100 µL/well anti-human kappa light chain-HRP (1:10000), incubate for 0.5 hr at 37° C. Wash 4 times with PBST. 100 µL/well of TMB substrate was added and incubated at room temperature for 5 min. 100 µL/well of 1N HCl to terminate reaction. Plates were read using ELISA plate reader at 450 nm wavelength (instrunet SpectraMax M5e). Data Analysis was performed using Graphpad prism 5 software by using nonlinear regression (curve fit): log (agonist) vs. response, agonist is antibody concentration (nM) and response is OD value.
A general note: In an ELISA, binding on a coated surface is turned into a signal by an enzyme label.

For assay [2], the target named is T2, NKG2A/CD94 on CHO cells (CHOK1-NKG2A-CD94) (human, UniProt P26715 1-233; Q13241 1-179, limits assumed).
T2 construct: whole, on cells; also called CHO cells over-expressing NKG2A/CD94; CHO cell line over expressing ectopic NKG2A
The assay is described as follows: FACS on CHO cells over-expressing human NKG2A (FIG. 45F). As to the method: (§2) Then wash the cells 3 times with 170 µL FACS buffer. Re-suspend the cells at 100 µL/well with secondary antibody (goat anti-human Ig Fab-FITC, Cat # 2085-02, Southern biotech) with 1:400 dilution and incubate the plate for 30 min at 4° C. in dark. Centrifuge the plate at 2000 rpm, 4° C. for 5 min and discard supernatant. Then wash the cells 3 times with FACS buffer and analyze the sample with FACS verse. The fluorescence intensity of the staining was measured using flow cytometer (BD, FACSVerse). The geometric mean fluorescence intensity (GMFI; median fluorescence intensity (MFI)) of set antibodies staining was calculated (BD FACSuite software). Dose-response curves were generated and EC50s for thetrispecific variants binding were calculated using GraphPad Prism software.
Results: The expressed trispecific constructs were analyzed for their binding to cells expressing endogenous CD3ε, 5T4 and NKG2A/NKG2D. […] (FIG. 45F).

Assay [3] has as its target T1, NKG2A-CD94-ECD-hFc. In words: ELISA on coated NKG2A-CD94-ECD-hFc (FIG. 43D), reference IM-1062. The method, then: as §1, with “Data Analysis was performed using Graphpad prism 5 software by using nonlinear regression (curve fit): log (agonist) vs. response, agonist is antibody concentration (nM) and response is OD value.” left out
Assay [4] deals with T2, NKG2A/CD94 on CHO cells …. In words: FACS on CHO cells over-expressing human NKG2A (FIG. 45F), reference IM-1062. The method, then:
as §2, with “Suspension cultured cells was harvested directly, and adherent cell were digested using TrypLE Express Enzyme (cat: 12604-013, supplier Life technologies). Centrifuge at 1000 rpm for 5 min and discard the supernatant. Cells are suspended at a concentration of 2×10⁶/mL in FACS buffer (2% FBS in PBS) and add 100 µL/well of cell suspension to the plate (cat #3799, supplier Corning). Centrifuging the plates at 2000 rpm for 5 min and discard the supernatant. Re-suspend the cells in 100 µL/well of Tribody set antibodies (400 nM start, 4-fold dilution, 8 point including 0 point) and incubate the plate for 60 min at 4° C. Centrifuge the plate at 2000 rpm, 4° C. for 5 min and discard supernatant. Then” for “Then”, “Then wash the cells 3 times with FACS buffer and analyze the sample with FACS verse.” left out

T2 sequence (P26715 whole entry, chain 1 of 2): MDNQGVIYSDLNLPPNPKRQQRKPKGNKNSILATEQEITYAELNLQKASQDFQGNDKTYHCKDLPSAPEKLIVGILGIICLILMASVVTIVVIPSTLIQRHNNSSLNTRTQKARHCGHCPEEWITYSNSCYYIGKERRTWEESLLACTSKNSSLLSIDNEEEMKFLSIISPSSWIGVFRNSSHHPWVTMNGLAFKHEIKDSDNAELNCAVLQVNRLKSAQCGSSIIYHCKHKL
T2 sequence (Q13241 whole entry, chain 2 of 2): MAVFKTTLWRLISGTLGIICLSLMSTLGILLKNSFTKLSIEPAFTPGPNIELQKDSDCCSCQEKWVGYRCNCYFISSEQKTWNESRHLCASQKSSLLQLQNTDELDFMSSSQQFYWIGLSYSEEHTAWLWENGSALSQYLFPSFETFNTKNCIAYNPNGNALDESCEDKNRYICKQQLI
T1 sequence (P26715 94-233 limits assumed, chain 1 of 2): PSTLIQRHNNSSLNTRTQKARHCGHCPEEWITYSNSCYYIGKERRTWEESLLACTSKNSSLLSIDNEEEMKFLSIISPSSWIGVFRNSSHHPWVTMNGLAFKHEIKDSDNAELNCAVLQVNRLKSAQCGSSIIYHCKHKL
T1 sequence (Q13241 32-179 limits assumed, chain 2 of 2): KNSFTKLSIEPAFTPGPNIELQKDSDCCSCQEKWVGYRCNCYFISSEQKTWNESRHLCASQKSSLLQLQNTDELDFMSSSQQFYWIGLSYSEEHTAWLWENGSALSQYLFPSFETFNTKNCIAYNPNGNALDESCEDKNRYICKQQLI

B1: IM-1272 bi-NKG2A scFv Tribody (other)
heavy: GGSGGSEVQLVESGGGLVQPGGSLRLSCAASGFTFNTYAMNWVRQAPGKGLEWVARIRSKYNNYATYYADSVKDRFTISRDDSKNTLYLQMNSLRAEDTAVYYCVRHGNFGNSYVSWFAYWGQGTMVTVSSASTKGPSVFPLAPSSKSTSGGTAALGCLVKDYFPEPVTVSWNSGALTSGVHTFPAVLQSSGLYSLSSVVTVPSSSLGTQTYICNVNHKPSNTKVDKRVEPKSCPPCGGGGSDIQMTQSPSSLSASVGDRVTITCRASENIYSYLAWYQQKPGKAPKLLIYNAKTLAEGVPSRFSGSGSGTDFTLTISSLQPEDFATYYCQHHYGTPRTFGGGTKVEIKGGGGSGGGGSGGGGSQVQLVQSGAEVKKPGASVKVSCKASGYTFTSYWMNWVRQAPGQGLEWMGRIDPYDSETHYAQKLQGRVTMTTDTSTSTAYMELRSLRSDDTAVYYCARGGYDFDVGTLYWFFDVWGQGTTVTVSSGGGGSDIQMTQSPSSLSASVGDRVTITCRASENIYSYLAWYQQKPGKAPKLLIYNAKTLAEGVPSRFSGSGSGTDFTLTISSLQPEDFATYYCQHHYGTPRTFGGGTKVEIKGGGGSGGGGSGGGGSQVQLVQSGAEVKKPGASVKVSCKASGYTFTSYWMNWVRQAPGQGLEWMGRIDPYDSETHYAQKLQGRVTMTTDTSTSTAYMELRSLRSDDTAVYYCARGGYDFDVGTLYWFFDVWGQGTTVTVSS
light: GGSGGSQAVVTQEPSLTVSPGGTVTLTCRSSTGAVTTSNYANWVQQKPGQAPRGLIGGTNKRAPGTPARFSGSLLGGKAALTLSGVQPEDEAEYYCALWYSNLWVFGGGTKLTVLGQPKAAPSVTLFPPSSEELQANKATLVCLISDFYPGAVTVAWKADSSPVKAGVETTTPSKQSNNKYAASSYLSLTPEQWKSHRSYSCQVTHEGSTVEKTVAPTECPPCSGGGSDIQMTQSPSSLSASVGDRVTITCRASQGISNYLAWFQQKPGKAPKSLIYRANRLQSGVPSRFSGSGSGTDFTLTISSLQPEDVATYYCLQYDDFPWTFGQGTKLEIKGGGGSGGGGSGGGGSGGGGSQVQLVQSGAEVKKPGASVKVSCKASGYTFTSFWMHWVRQAPGQGLEWMGRIDPNRGGTEYNEKAKSRVTMTADKSTSTAYMELSSLRSEDTAVYYCAGGNPYYPMDYWGQGTTVTVSS
notes: Tribody with anti-CD3 Fab, anti-5T4 scFv and two anti-NKG2A scFv in tandem
Take B1: the EC50 came out at 200 pM in the assay with NKG2A-CD94-ECD-hFc [1] and 400 pM in assay [2]. For the same molecule, the “fold improved binding affinity against IM-1062” value was approximately 60 fold with NKG2A-CD94-ECD-hFc [3] and approximately 80 fold in assay [4].
